From doi:10.1101/2025.11.08.687396 (bioRxiv, 2025)
Blank lines part the entries; values can stand above or below the binder they belong to.

B1: UBXN7-SBP (natural protein, human, UniProt O94888 1-489, looked up)
chain: MAAHGGSAASSALKGLIQQFTTITGASESVGKHMLEACNNNLEMAVTMFLDGGGIAEEPSTSSASVSTVRPHTEEEVRAPIPQKQEILVEPEPLFGAPKRRRPARSIFDGFRDFQTETIRQEQELRNGGAIDKKLTTLADLFRPPIDLMHKGSFETAKECGQMQNKWLMINIQNVQDFACQCLNRDVWSNEAVKNIIREHFIFWQVYHDSEEGQRYIQFYKLGDFPYVSILDPRTGQKLVEWHQLDVSSFLDQVTGFLGEHGQLDGLSSSPPKKCARSESLIDASEDSQLEAAIRASLQETHFDSTQTKQDSRSDEESESELFSGSEEFISVCGSDEEEEVENLAKSRKSPHKDLGHRKEENRRPLTEPPVRTDPGTATNHQGLPAVDSEILEMPPEKADGVVEGIDVNGPKAQLMLRYPDGKREQITLPEQAKLLALVKHVQSKGYPNERFELLTNFPRRKLSHLDYDITLQEAGLCPQETVFVQERN
notes: human UBXN7, wild type; also called SBP-tagged version of UBXN7; homolog of Ubx5; source: E. coli BL21 CodonPlus (DE3) RIPL, purified (Ni-NTA, SEC); not shown: SBP, C-terminal, kept

What was measured:
Details in all cases: both partners purified
human Npl4 = target: T1, human Npl4 (human, UniProt Q8TAT6 1-608); experiment: pull-down; UBXN7-SBP on streptavidin agarose with p97, human UN, Yod1-C160S and Ub(n)-TAIL, 1 μM each, SEC buffer, 5 mM ATPγS, 1 h, 4°C, eluted with 2 mM biotin; Coomassie-blue staining
T1 construct: human Npl4; Used as the human UN complex with hUfd1; also called hNpl4; Npl4 of the human UN complex; source: purified
T1 sequence (Q8TAT6 whole entry): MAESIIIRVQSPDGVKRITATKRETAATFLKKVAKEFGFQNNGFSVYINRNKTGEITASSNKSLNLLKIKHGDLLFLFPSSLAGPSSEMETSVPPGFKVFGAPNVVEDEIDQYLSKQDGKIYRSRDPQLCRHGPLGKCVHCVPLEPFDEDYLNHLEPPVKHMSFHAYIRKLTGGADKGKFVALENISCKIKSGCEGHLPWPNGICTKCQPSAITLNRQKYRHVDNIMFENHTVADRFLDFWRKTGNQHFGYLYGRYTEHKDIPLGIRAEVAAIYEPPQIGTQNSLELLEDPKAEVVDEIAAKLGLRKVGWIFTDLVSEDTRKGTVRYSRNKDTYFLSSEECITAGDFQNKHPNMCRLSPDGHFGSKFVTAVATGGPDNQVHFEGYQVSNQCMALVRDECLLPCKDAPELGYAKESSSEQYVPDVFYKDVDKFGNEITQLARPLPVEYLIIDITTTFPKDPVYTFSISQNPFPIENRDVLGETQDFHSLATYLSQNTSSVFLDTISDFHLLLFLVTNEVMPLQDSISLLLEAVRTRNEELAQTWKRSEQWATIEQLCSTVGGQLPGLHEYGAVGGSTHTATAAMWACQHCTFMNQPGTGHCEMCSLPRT

human p97 ATPase = target: T2, human p97 ATPase (human, UniProt P55072 1-806); experiment: as above
T2 construct: human p97 (VCP), wild type; pET28 with N-terminal His6-tag and a TEV-protease cleavage site; also called VCP; homolog of Cdc48; source: E. coli BL21 CodonPlus (DE3) RIPL, purified (Ni-NTA, SEC)
T2 sequence (P55072 whole entry): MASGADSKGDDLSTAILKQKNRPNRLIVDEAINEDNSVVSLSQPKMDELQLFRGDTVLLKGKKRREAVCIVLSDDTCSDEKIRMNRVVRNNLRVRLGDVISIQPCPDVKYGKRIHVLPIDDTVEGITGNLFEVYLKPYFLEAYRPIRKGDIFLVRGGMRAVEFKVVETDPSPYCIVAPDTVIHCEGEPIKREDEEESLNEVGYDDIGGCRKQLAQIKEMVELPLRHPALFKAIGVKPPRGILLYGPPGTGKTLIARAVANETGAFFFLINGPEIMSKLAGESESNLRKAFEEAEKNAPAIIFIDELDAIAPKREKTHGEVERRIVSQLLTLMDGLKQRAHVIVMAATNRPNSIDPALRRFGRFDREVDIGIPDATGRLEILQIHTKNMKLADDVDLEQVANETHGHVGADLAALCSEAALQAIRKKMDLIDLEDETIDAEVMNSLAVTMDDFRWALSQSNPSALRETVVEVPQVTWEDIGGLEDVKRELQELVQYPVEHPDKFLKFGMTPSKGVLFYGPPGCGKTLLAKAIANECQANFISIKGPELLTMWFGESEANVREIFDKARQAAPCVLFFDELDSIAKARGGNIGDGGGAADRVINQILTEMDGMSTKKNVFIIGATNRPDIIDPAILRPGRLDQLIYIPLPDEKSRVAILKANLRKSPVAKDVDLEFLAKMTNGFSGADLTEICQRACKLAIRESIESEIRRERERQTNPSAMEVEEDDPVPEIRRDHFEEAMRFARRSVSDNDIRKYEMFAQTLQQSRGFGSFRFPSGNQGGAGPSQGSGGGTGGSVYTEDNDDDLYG

UBXN7-SBP = target: B1; experiment: as above
Cdc48 = target: T3, Cdc48 (yeast (S. cerevisiae), UniProt P25694 1-835); experiment: pull-down; Otu1-C120S-FLAG on anti-FLAG M2 agarose with Cdc48, UN and Ub(n)-TAIL, with or without Ubx5, 1 μM each, SEC buffer, 5 mM ATPγS, 1 h, 4°C; fluorescence scanning and Coomassie-blue staining
T3 construct: Cdc48 ATPase of yeast, wild type; pET28 with N-terminal His6-tag and a TEV-protease cleavage site; also called Cdc48 ATPase; wild-type (WT) Cdc48; source: E. coli BL21 CodonPlus (DE3) RIPL, purified (Ni-NTA, SEC)
T3 sequence (P25694 whole entry): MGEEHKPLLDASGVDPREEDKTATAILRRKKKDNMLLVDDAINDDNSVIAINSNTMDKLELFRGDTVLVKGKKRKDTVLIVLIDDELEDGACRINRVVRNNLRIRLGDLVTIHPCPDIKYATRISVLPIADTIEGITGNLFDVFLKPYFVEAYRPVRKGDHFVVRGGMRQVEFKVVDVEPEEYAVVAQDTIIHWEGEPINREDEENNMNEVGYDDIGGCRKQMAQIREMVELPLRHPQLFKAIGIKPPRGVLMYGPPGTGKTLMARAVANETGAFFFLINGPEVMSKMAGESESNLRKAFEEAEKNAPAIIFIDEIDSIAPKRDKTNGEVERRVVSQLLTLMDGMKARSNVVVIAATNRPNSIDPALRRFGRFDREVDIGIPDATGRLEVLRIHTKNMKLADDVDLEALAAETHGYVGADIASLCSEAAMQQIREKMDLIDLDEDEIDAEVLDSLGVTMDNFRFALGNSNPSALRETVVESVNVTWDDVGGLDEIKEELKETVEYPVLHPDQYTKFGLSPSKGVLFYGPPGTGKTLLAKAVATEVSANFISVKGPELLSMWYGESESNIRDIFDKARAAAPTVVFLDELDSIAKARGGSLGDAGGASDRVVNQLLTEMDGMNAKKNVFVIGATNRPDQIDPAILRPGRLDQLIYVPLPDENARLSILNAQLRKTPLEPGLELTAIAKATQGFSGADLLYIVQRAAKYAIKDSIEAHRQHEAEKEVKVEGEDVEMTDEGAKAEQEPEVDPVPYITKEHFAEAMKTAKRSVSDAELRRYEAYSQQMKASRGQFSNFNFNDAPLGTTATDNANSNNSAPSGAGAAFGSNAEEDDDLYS

Ufd1-Npl4 (UN) complex = target: T4, Ufd1-Npl4 (UN) complex (yeast (S. cerevisiae), UniProt P53044 1-361; P33755 1-580); experiment: as above
T4 construct: Ufd1 of yeast; Npl4 of yeast; The methods call the complex untagged; the plasmids are described as Ufd1 with an N-terminal His14-SUMO tag and Npl4 with a C-terminal His6 or FLAG-His6 tag; also called untagged Ufd1/Npl4 (UN) complex; source: bacterial expression
T4 sequence 1: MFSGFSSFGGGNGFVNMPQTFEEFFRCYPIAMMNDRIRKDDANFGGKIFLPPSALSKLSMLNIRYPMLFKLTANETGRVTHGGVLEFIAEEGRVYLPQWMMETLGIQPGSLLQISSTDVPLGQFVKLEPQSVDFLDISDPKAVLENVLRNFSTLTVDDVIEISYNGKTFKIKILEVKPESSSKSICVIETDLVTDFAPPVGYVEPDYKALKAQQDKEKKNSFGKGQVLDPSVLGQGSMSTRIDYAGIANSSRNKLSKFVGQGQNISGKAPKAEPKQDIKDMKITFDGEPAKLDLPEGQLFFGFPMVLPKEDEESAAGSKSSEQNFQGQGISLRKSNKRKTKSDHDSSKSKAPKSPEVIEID
T4 sequence 2: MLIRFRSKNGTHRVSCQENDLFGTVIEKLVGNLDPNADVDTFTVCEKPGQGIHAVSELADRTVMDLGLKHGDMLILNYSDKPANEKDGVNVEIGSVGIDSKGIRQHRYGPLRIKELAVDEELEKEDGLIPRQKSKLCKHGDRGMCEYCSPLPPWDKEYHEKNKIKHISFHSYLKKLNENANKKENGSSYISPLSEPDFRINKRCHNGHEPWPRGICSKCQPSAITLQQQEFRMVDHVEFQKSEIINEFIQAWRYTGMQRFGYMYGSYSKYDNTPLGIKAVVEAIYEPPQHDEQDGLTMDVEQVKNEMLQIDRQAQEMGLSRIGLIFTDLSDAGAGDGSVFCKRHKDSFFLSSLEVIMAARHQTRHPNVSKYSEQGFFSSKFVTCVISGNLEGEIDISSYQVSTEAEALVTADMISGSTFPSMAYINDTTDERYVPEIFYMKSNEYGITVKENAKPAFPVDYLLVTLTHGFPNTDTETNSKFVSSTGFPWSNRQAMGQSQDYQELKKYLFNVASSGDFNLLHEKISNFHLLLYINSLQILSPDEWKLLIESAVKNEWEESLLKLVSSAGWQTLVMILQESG

Binder: B1
- binding result (human Npl4): binds
- binding result (human p97 ATPase): binds

- binding result (UBXN7-SBP): binds
B2: Yod1-C160S (enzyme, human, UniProt Q5VVQ6 1-348, looked up)
chain: MFGPAKGRHFGVHPAPGFPGGVSQQAAGTKAGPAGAWPVGSRTDTMWRLRCKAKDGTHVLQGLSSRTRVRELQGQIAAITGIAPGGQRILVGYPPECLDLSNGDTILEDLPIQSGDMLIIEEDQTRPRSSPAFTKRGASSYVRETLPVLTRTVVPADNSSLFTSVYYVVEGGVLNPACAPEMRRLIAQIVASDPDFYSEAILGKTNQEYCDWIKRDDTWGGAIEISILSKFYQCEICVVDTQTVRIDRFGEDAGYTKRVLLIYDGIHYDPLQRNFPDPDTPPLTIFSSNDDIVLVQALELADEARRRRQFTDVNRFTLRCMVCQKGLTGQAEAREHAKETGHTNFGEV
notes: human deubiquitinating enzyme Yod1 with C160S; also called homolog of Otu1; source: E. coli BL21 CodonPlus (DE3) RIPL, purified (Ni-NTA, SEC)

- binding result (Cdc48): binds
- binding result (Ufd1-Npl4 (UN) complex): binds
B3: Otu1-C120S-FLAG (enzyme, S. cerevisiae, UniProt P43558 1-301, looked up)
chain: MKLKVTGAGINQVVTLKQDATLNDLIEHINVDVKTMRFGYPPQRINLQGEDASLGQTQLDELGINSGEKITIESSDSNESFSLPPPQPKPKRVLKSTEMSIGGSGENVLSVHPVLDDNSSLFHAIAYGIFKQDSVRDLREMVSKEVLNNPVKFNDAILDKPNKDYAQWILKMESWGGAIEIGIISDALAVAIYVVDIDAVKIEKFNEDKFDNYILILFNGIHYDSLTMNEFKTVFNKNQPESDDVLTAALQLASNLKQTGYSFNTHKAQIKCNTCQMTFVGEREVARHAESTGHVDFGQNR
notes: deubiquitinating enzyme Otu1 of yeast with C120S; pET28: N-terminal His6-tag, TEV-protease cleavage site, then a FLAG tag; source: E. coli BL21 CodonPlus (DE3) RIPL, purified (Ni-NTA, SEC); not shown: FLAG, N-terminal, kept
